Common to all, as to assay: ITC; Fep1 (~1.4 mM) injected, 2 µl each time, into Tup11 WT or mutant (~0.2 mM); 25°C; 1×PBS pH 7.4, 150 mM NaCl; iTC200 (MicroCal); Fep1 into buffer subtracted as background
Details in all cases: both partners purified
(In general: Isothermal titration calorimetry measures the heat released or taken up as one component is titrated into another.)

Experiment [1] addresses T1, S. japonicus Tup11 WD40 domain (301–630) Tyr382Ala (S. japonicus, UniProt B6JV84 301-630, Tyr382Ala).
T1 construct: Tup11, S. japonicus, WD40 domain, amino acids 301-630
T1 sequence (looked up): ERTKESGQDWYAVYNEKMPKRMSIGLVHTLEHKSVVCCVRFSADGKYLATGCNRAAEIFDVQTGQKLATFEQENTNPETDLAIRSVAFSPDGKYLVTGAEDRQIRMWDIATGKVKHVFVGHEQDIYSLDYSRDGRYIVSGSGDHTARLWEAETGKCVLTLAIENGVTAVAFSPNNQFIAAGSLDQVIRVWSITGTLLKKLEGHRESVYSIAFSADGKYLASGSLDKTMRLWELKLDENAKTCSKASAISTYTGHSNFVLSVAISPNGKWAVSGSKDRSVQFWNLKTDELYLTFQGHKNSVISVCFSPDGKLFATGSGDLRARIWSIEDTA

Experiment [2] deals with T2, S. japonicus Tup11 WD40 domain (amino acids 301–630), wild type (S. japonicus, UniProt B6JV84 301-630).
T2 construct: Tup11, S. japonicus, WD40 domain, amino acids 301-630; also called Tup11 WT
T2 sequence (looked up): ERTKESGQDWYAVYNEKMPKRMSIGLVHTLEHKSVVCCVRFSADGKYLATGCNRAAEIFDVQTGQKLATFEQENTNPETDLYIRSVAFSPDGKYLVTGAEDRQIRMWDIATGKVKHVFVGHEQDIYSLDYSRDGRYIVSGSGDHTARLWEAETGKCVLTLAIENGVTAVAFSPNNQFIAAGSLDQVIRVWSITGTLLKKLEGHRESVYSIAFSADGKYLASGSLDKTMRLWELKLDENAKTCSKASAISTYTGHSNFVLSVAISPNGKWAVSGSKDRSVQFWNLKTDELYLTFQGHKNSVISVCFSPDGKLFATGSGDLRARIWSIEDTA

Experiment [3] has as its target T3, S. japonicus Tup11 WD40 domain (301–630) Cys337Ala (S. japonicus, UniProt B6JV84 301-630, Cys337 substituted by Ala).
T3 construct: Tup11, S. japonicus, WD40 domain, amino acids 301-630; also called Cyc337
T3 sequence (looked up): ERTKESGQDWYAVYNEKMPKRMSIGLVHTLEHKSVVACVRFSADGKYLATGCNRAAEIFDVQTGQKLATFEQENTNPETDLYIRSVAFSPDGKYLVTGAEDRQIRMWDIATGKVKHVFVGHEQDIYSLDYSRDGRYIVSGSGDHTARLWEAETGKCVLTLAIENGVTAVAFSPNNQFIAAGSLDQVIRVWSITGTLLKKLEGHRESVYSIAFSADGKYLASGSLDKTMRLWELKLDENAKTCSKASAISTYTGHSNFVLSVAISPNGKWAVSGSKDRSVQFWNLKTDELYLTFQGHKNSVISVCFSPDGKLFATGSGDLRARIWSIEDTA

The target in experiment [4] is T4, S. japonicus Tup11 WD40 domain (301–630) Tyr508Ala (S. japonicus, UniProt B6JV84 301-630, Tyr508 substituted by Ala).
T4 construct: Tup11, S. japonicus, WD40 domain, amino acids 301-630
T4 sequence (looked up): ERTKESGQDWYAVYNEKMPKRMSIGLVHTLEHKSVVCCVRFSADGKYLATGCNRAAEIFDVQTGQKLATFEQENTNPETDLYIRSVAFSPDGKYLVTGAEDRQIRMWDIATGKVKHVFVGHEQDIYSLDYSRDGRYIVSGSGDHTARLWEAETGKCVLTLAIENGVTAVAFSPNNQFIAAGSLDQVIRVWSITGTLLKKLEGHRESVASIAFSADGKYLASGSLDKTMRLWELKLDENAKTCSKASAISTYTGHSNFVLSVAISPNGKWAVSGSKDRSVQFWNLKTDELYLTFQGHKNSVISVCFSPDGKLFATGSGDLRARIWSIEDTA

Experiment [5] addresses T5, S. japonicus Tup11 WD40 domain (301–630) Leu559Ala (S. japonicus, UniProt B6JV84 301-630, Leu559Ala).
T5 construct: Tup11, S. japonicus, WD40 domain, amino acids 301-630
T5 sequence (looked up): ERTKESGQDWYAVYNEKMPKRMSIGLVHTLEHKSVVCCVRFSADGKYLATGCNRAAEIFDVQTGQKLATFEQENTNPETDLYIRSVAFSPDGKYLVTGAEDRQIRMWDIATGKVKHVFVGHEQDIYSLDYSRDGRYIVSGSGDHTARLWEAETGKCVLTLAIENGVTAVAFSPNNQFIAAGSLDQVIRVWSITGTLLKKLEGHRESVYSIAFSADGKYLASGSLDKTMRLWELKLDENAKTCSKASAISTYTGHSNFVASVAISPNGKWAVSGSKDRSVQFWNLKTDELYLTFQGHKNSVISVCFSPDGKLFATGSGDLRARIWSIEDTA

B1: C-terminal region of S. pombe Fep1 (amino acids 319–564) (domain or fragment, UniProt Q10134 319-564, looked up)
chain: AAGEPDNNGKVYYSYGPTQEQSILPLPENKHEGLPPYQNEYVPNGIRANQVVYPGQLVAVGNDSSKQLSESTTSNTDNNGVATANQSNPLGMKFHLPPILPVGESVCLPPRTSAKPRIAEGIASLLNPEEPPSNSDKQPSMSNGPKSEVSPSQSQQAPLIQSSTSPVSLQFPPEVQGSNVDKRNYALNVLSQLRSQHDLMIQELHNLNQHIQQIDEWLRSSDNENMASEHIKSSTPAVVASGALQT
notes: Fep1, GATA-factor, S. pombe, C-terminal region, amino acids 319-564
Take B1: the “reduction of binding free energy against wild type” value in experiment [1] was approximately 1.7 kcal/mol; in experiment [5] it was approximately 1 kcal/mol. Also, the Kd (commonly the equilibrium constant for the complex coming apart) in experiment [2] was approximately 10 µM. For the same molecule, the binding result in experiment [3] and in experiment [4] was “binds” in each case.

(Values after publication PMC3419727, “Identifying the Hotspots on the Top Faces of WD40-Repeat Proteins from Their Primary Sequences by β-Bulges and DHSW Tetrads” (PLoS ONE, 2012).)
